Tests used:
Assay in all cases: GST pull-down, 35S-Met protein vs GST fusion; - means no detectable binding (footnote a)
[1] = biological target: T1, GST (glutathione-S transferase alone) (UniProt P08515 1-218 = GST)
T1 construct: Purified GST used as negative control bait on glutathione sepharose beads; also called OST
Description: (§1) GST fusion protein pull-down assays were performed as described in J. Parrish, H. Metters, L. Chen, D. Xue, Proc. Natl. Acad. Sci. U.S.A. 97, 11916 (2000). Purified GST or GST-fusion proteins (5 μg each) immobilized on glutathione sepharose beads were incubated with ³⁵S-Methionine labeled proteins at 4° C. for 2 hours. The beads were washed extensively and the bound proteins were resolved on a 12% SDS-PAGE and visualized by autoradiography. [0103] cDNAs corresponding to the ORFs were cloned into the pPD129.36 vector via its Nhe I and Xho I sites or the Xho I site alone. Full-length cDNAs were subcloned into the pGEX4T-2 vector for generating GST fusion proteins and for further protein purification and into the pcDNA3.1 vector for in vitro transcription/translation experiments.
(§2) ^aInteractions were evaluated relative to background binding of ³⁵S-Methionine labeled Luciferase to GST-fusion proteins and ³⁵S-Methionine labeled proteins to GST. “−” indicates no detectable binding, “+” indicates an interaction consistently observed above background levels, and “++” indicates a strong interaction. ^bBecause ³⁵S-Methionine labeled CRN-1 binds GST tightly, it was not possible to evaluate interactions between ³⁵S-CRN-1 and various GST-fusion proteins. ND, not determined.

GST-CPS-6 = biological target: T2, GST-CPS-6 (C. elegans, UniProt Q95NM6 1-308)
T2 construct: GST at the N-terminus as in pGEX vectors; also called CPS-6 GST-fusion protein; not shown: glutathione S-transferase tag encoded by vector pGEX4T-2
T2 sequence (looked up): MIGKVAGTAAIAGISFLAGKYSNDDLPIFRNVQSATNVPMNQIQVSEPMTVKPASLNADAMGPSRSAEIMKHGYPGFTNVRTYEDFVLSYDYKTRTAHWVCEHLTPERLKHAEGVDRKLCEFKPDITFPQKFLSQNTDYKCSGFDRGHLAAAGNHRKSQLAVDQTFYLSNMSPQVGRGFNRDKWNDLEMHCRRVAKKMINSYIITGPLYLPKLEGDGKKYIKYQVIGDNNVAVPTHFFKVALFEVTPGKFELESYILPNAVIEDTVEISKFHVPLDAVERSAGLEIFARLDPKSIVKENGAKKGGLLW
Description: as §1, §2

GST-NUC-1 = biological target: T3, GST-NUC-1 (C. elegans, UniProt Q17778 22-375)
T3 construct: also called NUC-1 GST-fusion protein; not shown: glutathione S-transferase tag encoded by vector pGEX4T-2
T3 sequence (looked up): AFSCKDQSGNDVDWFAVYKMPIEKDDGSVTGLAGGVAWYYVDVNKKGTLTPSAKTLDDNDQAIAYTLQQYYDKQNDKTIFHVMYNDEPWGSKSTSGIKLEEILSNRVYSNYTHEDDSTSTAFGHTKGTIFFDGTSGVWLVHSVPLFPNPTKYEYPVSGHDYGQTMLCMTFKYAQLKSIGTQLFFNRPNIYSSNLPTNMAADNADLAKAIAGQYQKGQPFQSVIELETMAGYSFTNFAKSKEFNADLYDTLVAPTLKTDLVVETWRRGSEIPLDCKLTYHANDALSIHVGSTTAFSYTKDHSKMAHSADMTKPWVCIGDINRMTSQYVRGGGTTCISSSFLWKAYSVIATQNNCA
Description: as §1, §2

GST-CRN-3 = biological target: T4, GST-CRN-3 (C. elegans, UniProt G5EBX6 1-876)
T4 construct: also called CRN-3 GST-fusion protein; not shown: glutathione S-transferase tag encoded by vector pGEX4T-2
T4 sequence: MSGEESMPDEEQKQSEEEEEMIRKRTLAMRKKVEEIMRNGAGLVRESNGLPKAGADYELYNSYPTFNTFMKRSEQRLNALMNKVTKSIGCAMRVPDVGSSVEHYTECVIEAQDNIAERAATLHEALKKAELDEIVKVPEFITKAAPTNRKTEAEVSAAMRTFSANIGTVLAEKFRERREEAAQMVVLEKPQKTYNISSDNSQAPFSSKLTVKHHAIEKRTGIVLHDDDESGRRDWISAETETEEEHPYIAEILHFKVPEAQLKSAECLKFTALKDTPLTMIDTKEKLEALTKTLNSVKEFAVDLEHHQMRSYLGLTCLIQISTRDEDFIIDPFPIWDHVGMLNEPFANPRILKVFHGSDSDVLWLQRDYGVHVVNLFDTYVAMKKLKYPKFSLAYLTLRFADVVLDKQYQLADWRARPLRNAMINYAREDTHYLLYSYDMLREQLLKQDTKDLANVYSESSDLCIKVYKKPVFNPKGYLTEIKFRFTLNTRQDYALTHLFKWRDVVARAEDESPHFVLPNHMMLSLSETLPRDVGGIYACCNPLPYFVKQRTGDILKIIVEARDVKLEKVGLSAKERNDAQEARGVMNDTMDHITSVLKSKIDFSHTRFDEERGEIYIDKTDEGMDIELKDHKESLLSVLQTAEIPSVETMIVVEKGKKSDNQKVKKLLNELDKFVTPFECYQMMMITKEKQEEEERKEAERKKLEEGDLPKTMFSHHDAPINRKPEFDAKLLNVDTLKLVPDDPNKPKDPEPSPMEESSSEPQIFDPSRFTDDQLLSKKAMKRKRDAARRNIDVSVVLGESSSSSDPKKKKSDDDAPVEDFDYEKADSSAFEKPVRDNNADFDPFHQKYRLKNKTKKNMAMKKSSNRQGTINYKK
Description: as §1, §2

GST-CRN-4 = biological target: T5, GST-CRN-4 (C. elegans, UniProt Q10905 1-298)
T5 construct: also called CRN-4 GST-fusion protein; not shown: glutathione S-transferase tag encoded by vector pGEX4T-2
T5 sequence (looked up): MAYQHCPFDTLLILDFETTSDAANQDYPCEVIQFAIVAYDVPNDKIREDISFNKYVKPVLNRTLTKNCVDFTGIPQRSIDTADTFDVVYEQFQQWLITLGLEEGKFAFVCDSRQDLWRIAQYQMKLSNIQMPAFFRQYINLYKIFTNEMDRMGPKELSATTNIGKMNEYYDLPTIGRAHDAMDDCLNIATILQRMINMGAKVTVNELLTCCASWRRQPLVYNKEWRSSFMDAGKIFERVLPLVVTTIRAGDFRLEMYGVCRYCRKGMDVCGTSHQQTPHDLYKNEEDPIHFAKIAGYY
Description: as §1, §2

Measured: binding result

T1 sequence (P08515 whole entry): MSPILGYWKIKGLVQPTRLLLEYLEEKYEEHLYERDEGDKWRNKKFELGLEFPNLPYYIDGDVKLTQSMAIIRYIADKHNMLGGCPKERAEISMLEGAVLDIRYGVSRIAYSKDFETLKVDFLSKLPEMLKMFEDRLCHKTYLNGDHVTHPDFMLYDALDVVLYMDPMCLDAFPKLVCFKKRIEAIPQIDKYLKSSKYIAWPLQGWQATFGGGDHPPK

B1: ^35S-Methionine labeled CRN-2 (enzyme, C. elegans)
chain: MALYELVDIGANLGHPSYQKDLNDVLDRAKQAGLSKIMVTGTSEKISHECADLVEKYPGFLYFTAGVHPHDAKDWNDGTLEALKKLQENPSCVAVGECGLDFNRNFSPQDVQKEVFAKQVDMAVKLQKPLFIHEREAHEDMVKILTAAGPSLPPAVIHCFTGTVVEAKKYLEMGFYIGLTGFLWKDRSDNGVQAGLRSGEIPIEKLVLETDAPYMYPKINDKKIPKEIKSLITPETEALHNFSSFNRNEPCSLAAVCELVAAFAGRDPKEVAKITTENAKKVYKLE
no binding: all assays above

Source: US20050142568A1 (published 2005)
